Test results reported in US7056679 (ANTYRA, dated 2006).
No end group written: not given here.

These binders were tested against T1, DGI-2 (UniProt Q15004 1-111, limits assumed) (assay: phage ELISA, coated DGI-2).
T1 construct: Soluble recombinant DGI-2 made by in vitro translation (RTS, pIVEX2.3-MCS vector) and coated on plates for the ELISA; vector tag not described; also called KIAA0101; DGI-2 polypeptide
T1 sequence (looked up): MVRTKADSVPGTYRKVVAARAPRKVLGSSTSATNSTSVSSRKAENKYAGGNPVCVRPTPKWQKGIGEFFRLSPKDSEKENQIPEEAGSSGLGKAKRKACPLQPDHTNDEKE
Protocol: For analysis of individual target binders, colonies were picked and phage prepared as described above using helper phage, M13KO7. Ninety-six-well microtiter plates were coated with 500 ng/well of specific target protein, 500 ng/well lactate dehydrogenase (LDH) irrelevant or non-specific target, 500 ng/well of positive control antibody raised against ETAG, and negative control of non-fat milk powder-PBS 2% at 4° C. overnight. Plates were then blocked with 350 microliters/well PBS containing 2% non-fat milk for 1 hr at room temperature. One hundred microliters per well of phage from isolated clones were added and plates were incubated at room temperature for 2 hr after centrifuging samples for 20 minutes at 3500 rpm at 4° C. The phage solution was then removed, and the wells were washed three times with PBS at room temperature. Antibody raised against M13 conjugated to horseradish peroxidase (Pharmacia) was diluted 1:3000 in PBS-Tween and added to each well (100 µl/well). Incubation was for 1 hr at room temperature, followed by washing with PBS-(0.5%) Tween 3 times as described. Color was developed by addition of ABTS solution (100 µl/well; Boehringer, Indianapolis, Ind.). Plates were analyzed at 405 nm. A clone was considered "positive" if the $A405$ of the well was $\geq$2-fold over background.

Binder | binding result
WGCVFRQWASGSGAGCARRH (not fully specified; cysteine pairing not given here, on M13 phage, pIII fusion with E-tag) [DGI-2-20R-3-D9] | binds
EGNWFCAVFRGFCVGDRGPE (not fully specified (bridges); cysteine pairing not given here, on M13 phage, pIII fusion with E-tag) [DGI-2-20R-3-A1] | binds
GGSLPVKSGQLVTCCTSKGG (on M13 phage, pIII fusion with E-tag) [DGI-2-20F-PP-F5] | binds
SVTISTSCRTGCPAGYLRRD (not fully specified; cysteine pairing not given here, on M13 phage, pIII fusion with E-tag) [DGI-2-20F-PP-D2] | binds
DQRVVGSGWFERLRNWYDRA (on M13 phage, pIII fusion with E-tag) [DGI-2-20R-4-G99] | binds
VSFAHDWGRWWYQWEVG (on M13 phage, pIII fusion with E-tag) [DGI-2-20R-4-G22] | binds
CCAWNGVGVGGLGWRVVVGP (on M13 phage, pIII fusion with E-tag) [DGI-2-20F-PP-H4] | binds
LLLPVRWRDAQPRSLLMEWI (on M13 phage, pIII fusion with E-tag) [DGI-2-20F-PP-F8] | binds
RDTMCGSVSWGIPGCEYSGM (not fully specified; cysteine pairing not given here, on M13 phage, pIII fusion with E-tag) [DGI-2-20R-4-G122] | binds
RSYPRLCKQKGGVIGRMLPG (on M13 phage, pIII fusion with E-tag) [DGI-2-20F-PP-B2] | binds
ERVSKCVGRGSGRSVGQFGG (on M13 phage, pIII fusion with E-tag) [DGI-2-20F-PP-F1] | binds
GRWDGWEVCGIWGADDCASG (not fully specified; cysteine pairing not given here, on M13 phage, pIII fusion with E-tag) [DGI-2-20R-4-H1] | binds
GWSDFVATGSWSGQVSAALN (on M13 phage, pIII fusion with E-tag) [DGI-2-20R-4-F120] | binds
VCGQRVARMQLNKTIRKLDS (on M13 phage, pIII fusion with E-tag) [DGI-2-20F-PP-A6] | binds
CGGWGAMWEAWVQGLNGAGC (not fully specified; cysteine pairing not given here, on M13 phage, pIII fusion with E-tag) [DGI-2-20R-3-D4] | binds
VCSGGKGTWLEIPDRVRSST (on M13 phage, pIII fusion with E-tag) [DGI-2-20F-PP-A22] | binds
LFSATGCALMSGFCLGSDGS (not fully specified; cysteine pairing not given here, on M13 phage, pIII fusion with E-tag) [DGI-2-20R-3-C1] | binds
GHGAGDWAAELFVCPVAFLTGFAWR (on M13 phage, pIII fusion with E-tag) [DGI-2-20R-4-H2] | binds
DGRGWGAMWMRWAEGLGADI (on M13 phage, pIII fusion with E-tag) [DGI-2-20R-4-G114] | binds
DRVARLATPTAGTMAAGSLGYERTVGCDSQDWFRCVVEGL (on M13 phage, pIII fusion with E-tag) [DGI-2-40F-3-D1044] | binds
VVGYAQGDGLEGGLGSSRDGS (on M13 phage, pIII fusion with E-tag) [DGI-2-20F-PP-D8] | binds
VGQSSGDARPLANLFVFPFV (on M13 phage, pIII fusion with E-tag) [DGI-2-20F-PP-F12] | binds
VWAAWVEGSLLSPRQEPVRD (on M13 phage, pIII fusion with E-tag) [DGI-2-20R-4-G4] | binds
SAFGCPLPRALGGGGARFYA (on M13 phage, pIII fusion with E-tag) [DGI-2-20F-PP-E11] | binds
LWRRWSEGQLLGDGELRGDG (on M13 phage, pIII fusion with E-tag) [DGI-2-20R-3-B52] | binds

Binder | binding result
RRGVCEIFTGWCVGQTNERP (not fully specified (bridges); cysteine pairing not given here, on M13 phage, pIII fusion with E-tag) [DGI-2-20R-4-H626] | binds
WWERFVWGRPVDDGVVVMAT (on M13 phage, pIII fusion with E-tag) [DGI-2-20R-3-B1] | binds
TIDVARRFGYGWWDLWLDGD (on M13 phage, pIII fusion with E-tag) [DGI-2-20R-3-C3] | binds
LVIGQRSFLSACSLFDGFCV (not fully specified; cysteine pairing not given here, on M13 phage, pIII fusion with E-tag) [DGI-2-20R-4-H814] | binds
QLDCLVWGLPGLRCDRPLEQ (not fully specified (bridges); cysteine pairing not given here, on M13 phage, pIII fusion with E-tag) [DGI-2-20R-3-B10] | binds
RKGWGVFCIPGLRFCDWSDP (not fully specified; cysteine pairing not given here, on M13 phage, pIII fusion with E-tag) [DGI-2-20R-3-B4] | binds
RDTTSQWSWISRGWEFPGWR (on M13 phage, pIII fusion with E-tag) [DGI-2-20R-3-C2] | binds
QMSRVAFSPGESWRRWVEGV (on M13 phage, pIII fusion with E-tag) [DGI-2-20R-3-A2] | binds
RSIRLQLIDEACQFFDGLCT (not fully specified; cysteine pairing not given here, on M13 phage, pIII fusion with E-tag) [DGI-2-20R-3-A8] | binds
RQRSGGRWVVDRVTRVASTSP (on M13 phage, pIII fusion with E-tag) [DGI-2-20F-PP-B12] | binds
VQSGRDLGGLLRGGTGTEASP (on M13 phage, pIII fusion with E-tag) [DGI-2-20F-PP-D3] | binds
FRMWVQSCFWGQPGTGCGEG (not fully specified; cysteine pairing not given here, on M13 phage, pIII fusion with E-tag) [DGI-2-20R-3-D2] | binds
RISVGQCGTSRCGGGRRGGG (not fully specified; cysteine pairing not given here, on M13 phage, pIII fusion with E-tag) [DGI-2-20F-PP-D1] | binds
VWRDWVNGTVGLRNREKPGV (on M13 phage, pIII fusion with E-tag) [DGI-2-20R-3-A5] | binds
RGSLLLTLPRLSGAVGTAYG (on M13 phage, pIII fusion with E-tag) [DGI-2-20F-PP-B3] | binds
SLECWAMPGMVVRLVGCDGP (not fully specified (bridges); cysteine pairing not given here, on M13 phage, pIII fusion with E-tag) [DGI-2-20R-4-H112] | binds
QVGGMTQVGATVLSVVTGRGSCDGEDAWYPPGVTVGLGLC (on M13 phage, pIII fusion with E-tag) [DGI-2-40F-4-F97] | binds
RRILPWSFPGCGRMC (not fully specified; cysteine pairing not given here, on M13 phage, pIII fusion with E-tag) [DGJ-2-20R-3-A10] | binds
LSLEGGWMWDTKGGDGGSAQ (on M13 phage, pIII fusion with E-tag) [DGI-2-20R-4-F93] | binds
SVSGGGVFGTGGRVRHQVSG (on M13 phage, pIII fusion with E-tag) [DGI-2-20F-PP-C5] | binds
SWACGLLWPGECGSQVARRG (not fully specified; cysteine pairing not given here, on M13 phage, pIII fusion with E-tag) [DGI-2-20R-3-D127] | binds
VLGADAGMIWFMDGCGIRCR (not fully specified; cysteine pairing not given here, on M13 phage, pIII fusion with E-tag) [DGI-2-20R-4-E6] | binds
SRELGKWGRLWQDWSSGNFS (on M13 phage, pIII fusion with E-tag) [DGI-2-20R-3-C11] | binds
WWREWVDGSLRGGGGTVLKD (on M13 phage, pIII fusion with E-tag) [DGI-2-20R-3-A122] | binds
MGADTCMGGKMPFDQMFGAV (on M13 phage, pIII fusion with E-tag) [DGI-2-20F-PP-E10] | binds
